Measurements from the DeepSol protein solubility set.

Assay: soluble on expression in E. coli; label from the status in PepcDB or PDB records

| Sequence | soluble on expression in E. coli |
| --- | --- |
| MTDEKKKGVIFDIQRWSLHDGPGIRTNVFFKGCPLSCQWCSNPESQEFCREPALFGDKCIHCLSCVEHCPHGAIHTSDPWIRLDYEICRGRCSRGAEQENAFCCTKACYAQALTVMGEVMTADMVLEEVMRDEGIYRSSGGGVTMTGGEPLAQPEFLLELLTAAKERGLHTVMESSMFAEWDKIQACLPYLDVLFMDMKLLPEEKHVKYTGVSNQIILDNIRRAAAYARTHRLELAVRTPVIPGINDTSGDIAAMADWIKKHLPGVERYELLPYHRLGRGKYRNIGREYQLGDIVPPSKEKMKELEAVVSKLGLRRE | not soluble |
| MKAYLGLYTARLETPARSLKEKRALIKPALERLKARFPVSAARLYGLDAWGYEVVGFTLLGNDPAWVEETMRAAARFLAEAGGFQVALEEFRLEAFELDGLL | soluble |
| MHHHHHHSSGRENLYFQGTFAERYNIVCMLGKGSFGEVLKCKDRITQQEYAVKVINKASAKNKDTSTILREVELLKKLDHPNIMKLFEILEDSSSFYIVGELYTGGELFDEIIKRKRFSEHDAARIIKQVFSGITYMHKHNIVHRDLKPENILLESKEKDCDIKIIDFGLSTCFQQNTKMKDRIGTAYYIAPEVLRGTYDEKCDVWSAGVILYILLSGTPPFYGKNEYDILKRVETGKYAFDLPQWRTISDDAKDLIRKMLTFHPSLRITATQCLEHPWIQKYSSETPTISDLPSLESAMTNIRQFQAEKKLAQAALLYMASKLTTLDETKQLTEIFRKLDTNNDGMLDRDELVRGYHEFMRLKGVDSNSLIQNEGSTIEDQIDSLMPLLDMDGSGSIEYSEFIASAIDRTILLSRERMERAFKMFDKDGSGKISTKELFKLFSQADSSIQMEELESIIEQVDNNKDGEVDFNEFVEMLQNFVRNE | soluble |
| MGSDKIHHHHHHMKIFNAMFSKVNGGLEQVFLNYIPALSSQGNLVIPIIHPKAEIRNSCPQDHLITVHNFNQHDFFAIHRLKKLIKIHQPDCIITHSYRAAYLFKKTRTKVPKIAVCHVKGHYDFGTDAIIALTEQMRRDIINSGIEERRVFTIPNLIHIPDGLQYREPKNNQIPIIGVCARFAAIKGVDVFINALAELKKRGVAFQAKIAGDGKEKEQYIELIRHHGLEHEITLLGWIEDKESFYKSIDIFCLPSREESFGLVVLESMMHSLPMVLTRLSGPLEIAGNSGCALFVPPEDPVSMADGLERLLRDKDLSKQLALKAFQRVQHYSSTKVAPMLHKVLEKACEINQQ | not soluble |
| MNTESSPFVFNVGTLVRGSAVPASVQQTGPSPVRIGPAMIAIPENGDVTVNATITPLGDALMVDADVSAELSGECVRCLQHMAPRAQFHVNEVFALTEDFITGDDGDGEDDDVTVITGDTVDILQAVIDEAGMSLPFNPQCEGGCVQSDSDVPEPDGIAGETELVDPRWAGLEKFL | not soluble |
| GMTNTTYVQEYHAIVEVLSKYNEGGKKADSTIMRPAFSSQATIFGVDVDNKLTGGPIQGLFDVIDNVFHPSPEAKAAIARIDIVGTAASARIDTDDISGFRFTDFFNLLKVEGKWTVVSKIYHTHPSA | soluble |
| NDDIIVNWVNETLREAEKSSSISSFKDPKISTSLPVLDLIDAIQPGSINYDLLKTENLNDDEKLNNAKYAISMARKIGARVYALPEDLVEVNPKMVMTVFACLMGKGMKRV | soluble |
| MSKKLKPFEILEDSCASVCIWLNGEPTAISNRAENLWNKAKYRVATDGAVNEILKRKSFVEWPHIICGDFDSINKQIDTKNAKVVHLPDQDYTDLSKSVQWCLEQKTLTSWEFENIVVLGGLNGRFDHTMSTLSSLIRFVDSQTPVIVLDSRNLVLAVPTGDSNLDVNLEMTTKMCGIIPIVQKETIKTLLLNLENLSARRMKLPRAKYF | not soluble |
| MGSDKIHHHHHHMKLEFTCGEEITIKEVNKLKLELMTSGKGDVEKELERLKKNKNKVHDIKTEETIDLLDRCAKLWLDDNYSKKHIETLAQITNQSFELVNYEFKSMMQMLLRENIQNTIKRELGEVDILDSWHKTNYGYEHRQPRGIIFHNISGNAFVVIPMSISMGLLSKNCNLVKVSKDEPYFAYAFYKSLCELDETVKDRLSVLYFDSSKTEIYDTIVKNSDGVIHWGGEYSSRIIGEMCAKYQKHMIMHGAKISFEVVDKCDDLNKVSEEIAKDIICWEQKACLSPRVVFLNDKIDVDEFSHCLSASLRKITEVIPKAYLSEWNSVKTIQDRQYCTLKYGMKNERRFKVYSSFNADYTVILSDGMPEKEDINKCFYRFIFVCPYSSKSDVVNYVSENLKDYLQTMGYSGNDEEFIEKMTLLGVSIVTKPGKMSLHEPGTSHDGIHNLKEFTFLVSRQI | not soluble |
| ADRHYSPIDRFLLQADSALRTLLPFSGQPARPSPAIVEPDGELSEEDTRHIAGLMRINHTGEVCAQALYQGQSLTAKLPEVREAMEEAAEEEIDHLAWCEQRIRQLGSRPSVLNPIFYGLSFGVGAAAGLVSDRVSLGFVAATEDQVCKHLDEHLAQIPQEDRKSRAILEQMRIDEEQHSSNALAAGGLRFPAPVKLGMSLLAKV | not soluble |
| MSLTTGAAVAFVDTLHDAAVRDLGWLLASPSMLTAVPGAPLARPWPDATGQAAVEAWLAALDAQPGPLHRALDGFRPTRLGRYAECLLEYFLTHGPSLRLVAANLPLRSNGRTLGEVDFLVDTPDGRRLHWEMAVKCYLCAPVRDGASLADFVGPNLVDRFDRKRSRLLDHQLRMGEHDGFARLGYGAPADAQMFIKGWLFHPYGAPVPPVSVEIAPDHPRGFWLTHGQWPAWAAAQRDGAAWSVLPRLAWLAPRRAVAGAGVEPEPLASALELPAVLATRQTPDMIAIHEKGGDGTWRETARGFVVPDDWPARAQAFAAQDHEGHHHHHH | soluble |
| MENPHEQVQANILSRIIGNVKRLNESVAILNQELVTINNRNKNLEIMGAICDNYHSSVQFNLEATNNKKPPL | not soluble |
| MGSDKIHHHHHHMIHKRSNSPNMKPIIEIKNLAAGYDGRTVLHDVNLNVYERDFLGIIGPNGGGKTTLIKCILGLLKPTAGEINFHAPTEASSHSQLSTSNLPLSLGYLPQYSTIDRKFPISVEEVILSGLSIQKSLTSRFTPEQREKGKHIIARMGLEGLEHRSIGQLSGGQLQRALLGRAIISDPSVLILDEPSTYIDKRFEARLYELLAEINKECAIILVSHDIGTVLQQVKSIACVNETLDYHPDTGVSTEWLERNFNCPIELLGHGTLPHRVLGEHHHHH | not soluble |
| MVFMQKRIIYGIDIARGSPRARELPRYALAILRDGEISHFSMLRRQKIFNMIQRDRPEIIAVDNIFELAADRNELLSLMERLPDGVKLVQVTGGLHPEPLVRIARKHGISLDPENPNDEAEACARLADLGVGHEVSLFEDITKIKVSRARSLGRGGWSQNRYRRKVHGAVLQRSREIENILKDLSREKGIRFEAVNVKGFGGYVRSEFTVYAKRGEVPVHSMASNDAQVSVRSVERDKIRYVPLKPRSQKRKFTIVGLDPGTTVGIAILSLDGDLLYLKSFRGIAPDEVVKIIAEYGKPAVIASDVTPMPGSVEKIRRSFNAVPASPGIEVSAEEKIALGKTFGYSNDHERDALTAALLTYRSYKNIFTRIEKKAPENSDLELIKLHVIRGESIESAIEKVRAASQAREKPAGARAAPEKPEEKAVDESFQRMRETVQRQGEQIQNLQEYVEELKQAMAAKDRKISKLESRLKGFKKEAYSEIRKSKEVQIRDSTIESLKKELSNKNKTVKELRRRSNKLRKIQKMEIRGEGTPVKVIAAFTKESIAETKEKYGLKAGDVVFLEKPSGGGAATAQILVEARVRAVIIPEDISHAAEETFFKGDVPVLRDIQLERADDFAMALEHHHHHH | not soluble |
| MGKVPEEVRSYLMEAHSLAGQWSLPNDRGDHTNSEAYDVNSVAIIGGGTMGKAMAICFGLAGIETFLVVRNEQRCKQELEVMYAREKSFKRLNDKRIEKINANLKITSDFHKLSNCDLIVESVIEDMKLKKELFANLENICKSTCIFGTNTSSLDLNEISSVLRDPSNLVGIHFFNPANVIRLVEIIYGSHTSSQAIATAFQACESIKKLPVLVGNCKSFVFNRLLHVYFDQSQKLMYEYGYLPHQIDKIITNFGFLMGPMTVADMNGFDVMEKLKKENGLEPNPIEKEMWRLKRYGRKTNKGFYKYDDKTQRKENDTEMEQIIRRVSQNAKSNIQIINDQDVINFMLYPTVNEGYRCIEEGVISNESLIDIMFILGFGWPIHSGGPMRFGKTEGLDKIANMLVHWSSLEPKESAYIVADALKTANNKLMSSKL | soluble |
| MEQATQQIAISDAAQAHFRKLLDTQEEGTHIRIFVVNPGTPNAECGVSYCPPNAVEESDIEMKYNTFSAFIDEVSLPFLEEAEIDYVTEELGAQLTLKAPNAKMRKVADDAPLIERVEYVIQTQINPQLANHGGRITLIEITEDGYAVLQFGGGCNGCSMVDVTLKDGVEKQLVSLFPNELKGAKDITEHQRGEHSYYLEHHHHHH | soluble |
| MGHHHHHHSHMQDGFLTVSIIDATNNRPIQNAVVNIYSMSNGSQSSSTLYQNLRSNESGQVTGLVLPAPDVDYSLQPSDVRPYSQYIVEAIADGYETVVIEGTQLLATIEARQGVPMSPRTRSKRSFSRQSELIFDIGEHTLYGTYPPKIPESNLKPLPPPTGFVVLDNPVVPEFIVVHDGLPEDSSAPNYWIPFKEYIKNIASSEIYSTWPEQTIYANVIAIISFTLNRVFTEWYRNKGYNFTITSTTAYDHKFINNRNLFEPINVVVDAIFNTFIKRPPTSRQPLLAQYCDGQKSQCPDQMTQWGSKDLGDQGYDYESILRYFYGDEIVFERAPIVSGVPVSFPGTTLQVGSSGQYVRTIQNQLNAISNSYPAVPKVIEDGIYGTDTENAVKIFQGIFGLPQSGVVDFKTWYEISRVYVATTRIASLNPLI | soluble |
| MGDDLDSLTDQLSSGFQVDPLALGEHPRYSQYKNLTKAAEQQAKRREETLERQKNGRFDTFMKLRNLAFDDVTSDEDDEQKIETTTAEKHTGKFKKYADKMMLSEWLVDIPESLSSDWTMVMAPVGKRTLVVASRGFTVAYNKGGREVSRFQSRLPGGNTRAKNQAWTILDCIYSNQTYYVLDLLSWNAHEYVESPYDFRQFMLKSKLEEAPELAKSTPGFRNIFSPIPSCPCSQDQMAELMKNEISFRLDGLLFYHNSVVYQPGQSPLVGWLKPWMLPEILNVPVPEKYKAESNGQSSSQFIESFNQKHKHQSKIDRSMEH | not soluble |
| MSKTFRVSKVTSGNSKAIQQTKPITILLMGVDTGSKGRKETWEGNSDTMILVTVNPKTKRTTMTSLERDLLADVEGSGEAKLNSAYAEGGADLAISTIQKVLDIDIDYYALINMHGMIDLVDAVGGIEVTNHFDFPISIAENEPEFQAKVEPGTHKINGEQALVYSRMRYDDPDGDYGRQKRQREVIQKIVAKLLKMDSIGSYKKILSAVSSNVQTSINLGDSTTLRGLMGYSEALKNIKSYQLAGSDAMINGGSYQVASTEDILKVQNRIKKEVGKKGVSESKLKTSLVLNDFGTSSYVSDDFVNSTGSYEAGPSEATGGGSVSTYYGGTTYGNSYTENTSNYVQDQATTAPTINYNGSGVTTYNLVPAAQLEHHHHHH | soluble |
| MSSALISSEQALNDYFTALLDEETAEFESTLKPEPVWEMAPAIQSVPNKSYFDAEIEELELPNLEDVQRLLSQLESSNPVADLDLEQILEENTAKIAKIDPVVQPCSVVEEIQEWEIETSYVEPDIETPESVIEDDLEPESVDTEAEREIAIETSIEEPVAEVPVVEAQAVPETQAGRNKLGTWTNTIREKDFQVLYFDVNGVTFAVPLDELGGIHRMTTLNHLIGRPAWYLGLQTNRDSQLDVVDTAKWVMAEKLRDESYKQAYQYIVMLGESAWGLASTQLMGTELLSTEKVRWREQVGKRPWLAGMVKEKMCALIHVQALIAMLNAGLDVKALEN | not soluble |
